Legend:
[1] = target: T1, Y67D8A.3 (Y67D8A.3) (Caenorhabditis elegans) (UniProt Q95XU1)
T1 sequence: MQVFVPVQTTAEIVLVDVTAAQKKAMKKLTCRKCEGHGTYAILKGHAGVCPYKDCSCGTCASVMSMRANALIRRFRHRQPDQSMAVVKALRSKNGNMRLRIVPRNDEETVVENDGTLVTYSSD

[2] = target: T2, T27F2.4 (T27F2.4) (Caenorhabditis elegans) (UniProt Q22835)
T2 sequence: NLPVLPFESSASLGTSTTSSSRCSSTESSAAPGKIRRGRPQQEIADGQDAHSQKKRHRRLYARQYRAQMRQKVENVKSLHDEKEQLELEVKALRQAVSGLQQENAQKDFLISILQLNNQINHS

[3] = target: T3, hlh-16 (DY3.3) (Caenorhabditis elegans) (UniProt O45320)
T3 sequence: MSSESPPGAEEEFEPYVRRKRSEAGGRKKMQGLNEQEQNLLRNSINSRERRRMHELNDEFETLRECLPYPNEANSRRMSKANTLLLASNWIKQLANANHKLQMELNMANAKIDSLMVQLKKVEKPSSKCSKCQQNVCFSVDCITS

[4] = target: T4, T07C12.11 (T07C12.11) (Caenorhabditis elegans) (UniProt G5EGG9)
T4 sequence: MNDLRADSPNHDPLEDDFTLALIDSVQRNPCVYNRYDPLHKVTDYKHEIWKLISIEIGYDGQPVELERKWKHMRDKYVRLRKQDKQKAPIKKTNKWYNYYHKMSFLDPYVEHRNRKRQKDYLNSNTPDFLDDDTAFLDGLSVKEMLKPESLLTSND

[5] = target: T5, Y51H4A.4 (Y51H4A.4) (Caenorhabditis elegans) (UniProt Q9NAE4)
T5 sequence: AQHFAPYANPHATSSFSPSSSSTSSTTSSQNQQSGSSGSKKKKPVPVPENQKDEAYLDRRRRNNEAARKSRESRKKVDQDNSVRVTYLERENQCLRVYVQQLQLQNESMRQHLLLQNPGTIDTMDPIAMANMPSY

[6] = system: T6, C34D1.1 (C34D1.1) (Caenorhabditis elegans)
T6 sequence: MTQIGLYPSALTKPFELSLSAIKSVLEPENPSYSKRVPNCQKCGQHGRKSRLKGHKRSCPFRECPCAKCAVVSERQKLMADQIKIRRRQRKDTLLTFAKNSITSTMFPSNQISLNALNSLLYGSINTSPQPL

[7] = system: T7, dmd-3 (Y43F8C.10) (Caenorhabditis elegans)
T7 sequence: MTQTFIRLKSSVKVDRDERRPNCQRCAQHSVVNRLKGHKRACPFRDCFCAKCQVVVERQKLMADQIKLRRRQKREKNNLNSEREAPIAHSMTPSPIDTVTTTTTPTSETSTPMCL

[8] = target: T8, ces-1 (F43G9.11) (Caenorhabditis elegans) (UniProt G5ECN8)
T8 sequence: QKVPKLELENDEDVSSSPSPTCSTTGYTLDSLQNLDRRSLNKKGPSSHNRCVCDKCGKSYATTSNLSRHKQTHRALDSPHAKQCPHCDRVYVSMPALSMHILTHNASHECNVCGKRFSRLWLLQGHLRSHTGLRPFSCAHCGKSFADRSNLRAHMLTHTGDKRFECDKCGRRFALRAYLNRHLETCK

[9] = target: T9, jun-1 (T24H10.7) (Caenorhabditis elegans) (UniProt G5ECU7)
T9 sequence: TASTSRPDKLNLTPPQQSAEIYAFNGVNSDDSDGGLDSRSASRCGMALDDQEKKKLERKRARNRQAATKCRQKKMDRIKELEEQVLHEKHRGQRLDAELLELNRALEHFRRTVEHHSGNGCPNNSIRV

[10] = target: T10, hlh-12 (C28C12.8) (Caenorhabditis elegans) (UniProt Q18277)
T10 sequence: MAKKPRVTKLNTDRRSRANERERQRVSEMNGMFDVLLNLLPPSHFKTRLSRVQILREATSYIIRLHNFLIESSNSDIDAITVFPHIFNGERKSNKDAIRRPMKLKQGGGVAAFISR

[11] = target: T11, Y75B8A.6 (Y75B8A.6) (Caenorhabditis elegans) (UniProt A0A168H365)
T11 sequence: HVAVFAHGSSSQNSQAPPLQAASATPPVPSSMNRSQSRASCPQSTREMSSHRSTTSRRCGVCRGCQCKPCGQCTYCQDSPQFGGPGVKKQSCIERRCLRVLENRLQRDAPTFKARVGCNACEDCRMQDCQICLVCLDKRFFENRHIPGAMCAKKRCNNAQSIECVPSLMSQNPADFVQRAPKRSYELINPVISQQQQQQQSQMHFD

[12] = target: T12, atf-2 (K08F8.2) (Caenorhabditis elegans) (UniProt Q21361)
T12 sequence: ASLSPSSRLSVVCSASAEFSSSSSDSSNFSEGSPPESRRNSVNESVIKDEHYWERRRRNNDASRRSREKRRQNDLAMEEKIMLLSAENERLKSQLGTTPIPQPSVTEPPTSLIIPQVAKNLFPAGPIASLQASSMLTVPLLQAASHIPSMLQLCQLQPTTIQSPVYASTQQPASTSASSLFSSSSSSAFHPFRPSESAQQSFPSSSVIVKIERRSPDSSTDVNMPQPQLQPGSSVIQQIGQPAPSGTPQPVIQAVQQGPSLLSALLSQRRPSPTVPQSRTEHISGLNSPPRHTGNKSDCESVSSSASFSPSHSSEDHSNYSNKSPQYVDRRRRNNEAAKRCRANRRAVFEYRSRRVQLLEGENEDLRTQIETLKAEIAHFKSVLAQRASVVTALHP

[13] = target: T13, mab-3 (Y53C12B.5) (Caenorhabditis elegans) (UniProt O18214)
T13 sequence: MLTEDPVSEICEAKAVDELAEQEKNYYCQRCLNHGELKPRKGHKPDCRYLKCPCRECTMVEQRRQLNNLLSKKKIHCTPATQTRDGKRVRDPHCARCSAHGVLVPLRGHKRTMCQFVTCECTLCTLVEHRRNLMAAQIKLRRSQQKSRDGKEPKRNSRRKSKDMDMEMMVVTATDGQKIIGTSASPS

[14] = target: T14, nhr-122 (Y41D4B.9) (Caenorhabditis elegans) (UniProt Q95Y09)
T14 sequence: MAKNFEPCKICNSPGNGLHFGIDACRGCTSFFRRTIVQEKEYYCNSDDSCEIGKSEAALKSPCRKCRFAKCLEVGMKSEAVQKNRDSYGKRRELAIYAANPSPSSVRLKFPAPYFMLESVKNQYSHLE

[15] = target: T15, unc-120 (D1081.2) (Caenorhabditis elegans) (UniProt Q18955)
T15 sequence: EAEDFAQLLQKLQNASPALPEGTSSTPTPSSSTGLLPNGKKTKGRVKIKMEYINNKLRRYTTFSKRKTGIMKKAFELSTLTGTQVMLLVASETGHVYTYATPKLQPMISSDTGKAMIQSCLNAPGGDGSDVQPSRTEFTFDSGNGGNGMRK

“GAAAGGTC (double strand) [8-mer GAAAGGTC]” was tested, and the binding signal (PBM E-score (-0.5 to 0.5)) [1] was 0.461.
For “TACGAATA (double strand) [8-mer TACGAATA]”, the binding signal (PBM E-score (-0.5 to 0.5)) [2] was 0.452.
Work on “AAAGGTTG (double strand) [8-mer AAAGGTTG]” yielded a binding signal (PBM E-score (-0.5 to 0.5)) [1] of 0.454.
In the case of “TTCGTAAA (double strand) [8-mer TTCGTAAA]”, the binding signal (PBM E-score (-0.5 to 0.5)) [2] is reported as 0.458.
“ACAATATG (double strand) [8-mer ACAATATG]” gave a binding signal (PBM E-score (-0.5 to 0.5)) [3] of 0.471.
For “ATTCGTAA (double strand) [8-mer ATTCGTAA]”, the binding signal (PBM E-score (-0.5 to 0.5)) [2] was 0.489.
Work on “ATTACGTA (double strand) [8-mer ATTACGTA]” yielded a binding signal (PBM E-score (-0.5 to 0.5)) [4] of 0.485 and a binding signal (PBM E-score (-0.5 to 0.5)) [5] of 0.459.
Work on “CCATATGG (double strand) [8-mer CCATATGG]” yielded a binding signal (PBM E-score (-0.5 to 0.5)) [3] of 0.452.
Sequence “AATGTTTC (double strand) [8-mer AATGTTTC]” has a binding signal (PBM E-score (-0.5 to 0.5)) [6] of 0.497 and a binding signal (PBM E-score (-0.5 to 0.5)) [7] of 0.482.
“ATTACGAA (double strand) [8-mer ATTACGAA]” gave a binding signal (PBM E-score (-0.5 to 0.5)) [2] of 0.485.
Work on “ACCTGTTG (double strand) [8-mer ACCTGTTG]” yielded a binding signal (PBM E-score (-0.5 to 0.5)) [8] of 0.493.
Sequence “ATGACTCA (double strand) [8-mer ATGACTCA]” has a binding signal (PBM E-score (-0.5 to 0.5)) [9] of 0.498.
For “ATGACTAA (double strand) [8-mer ATGACTAA]”, the binding signal (PBM E-score (-0.5 to 0.5)) [9] was 0.465.
For “ACCATATG (double strand) [8-mer ACCATATG]”, the binding signal (PBM E-score (-0.5 to 0.5)) [10] was 0.468 and the binding signal (PBM E-score (-0.5 to 0.5)) [3] was 0.478.
In the case of “TTGCGCAA (double strand) [8-mer TTGCGCAA]”, the binding signal (PBM E-score (-0.5 to 0.5)) [4] is reported as 0.493, the binding signal (PBM E-score (-0.5 to 0.5)) [11] is reported as 0.462 and the binding signal (PBM E-score (-0.5 to 0.5)) [12] is reported as 0.498.
With “AATGTTGC (double strand) [8-mer AATGTTGC]” the binding signal (PBM E-score (-0.5 to 0.5)) [6] was 0.47, the binding signal (PBM E-score (-0.5 to 0.5)) [7] was 0.465 and the binding signal (PBM E-score (-0.5 to 0.5)) [13] was 0.498.
“CAATATTG (double strand) [8-mer CAATATTG]” was tested, and the binding signal (PBM E-score (-0.5 to 0.5)) [3] was 0.495.
“ACCTGTAG (double strand) [8-mer ACCTGTAG]” showed a binding signal (PBM E-score (-0.5 to 0.5)) [8] of 0.452.
“CCTGTTGC (double strand) [8-mer CCTGTTGC]” showed a binding signal (PBM E-score (-0.5 to 0.5)) [8] of 0.479.
Work on “ACTCCAAT (double strand) [8-mer ACTCCAAT]” yielded a binding signal (PBM E-score (-0.5 to 0.5)) [14] of 0.464.
Work on “AATATGGT (double strand) [8-mer AATATGGT]” yielded a binding signal (PBM E-score (-0.5 to 0.5)) [3] of 0.452 and a binding signal (PBM E-score (-0.5 to 0.5)) [15] of 0.466.
